One substance from patent US20040197853A1 can be followed below.

A value given as a limit tells only on which side of the number the result lay.

As to MTCS (enzyme), the In vitro Reactivity with IgG with IgG antibody was less than 5%. The In vitro Reactivity with IgE in the assay with monoclonal IgE antibody was less than 5%.
